In article PMC4861984, “Deciphering a unique biotin scavenging pathway with redundant genes in the probiotic bacterium Lactococcus lactis” (Scientific Reports, 2016):

T1: BirA2_LL (Lactococcus lactis IL1403, UniProt Q9CED9 1-250)
T1 sequence: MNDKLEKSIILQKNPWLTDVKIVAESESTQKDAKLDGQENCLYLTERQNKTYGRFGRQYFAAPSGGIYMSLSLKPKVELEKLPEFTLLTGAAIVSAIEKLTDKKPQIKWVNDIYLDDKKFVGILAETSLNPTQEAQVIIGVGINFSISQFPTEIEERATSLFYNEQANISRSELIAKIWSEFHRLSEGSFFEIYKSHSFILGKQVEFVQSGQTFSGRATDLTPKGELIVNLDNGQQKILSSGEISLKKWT

T2: BirA1_LL (Lactococcus lactis IL1403, UniProt Q9CEQ6 1-323)
T2 sequence: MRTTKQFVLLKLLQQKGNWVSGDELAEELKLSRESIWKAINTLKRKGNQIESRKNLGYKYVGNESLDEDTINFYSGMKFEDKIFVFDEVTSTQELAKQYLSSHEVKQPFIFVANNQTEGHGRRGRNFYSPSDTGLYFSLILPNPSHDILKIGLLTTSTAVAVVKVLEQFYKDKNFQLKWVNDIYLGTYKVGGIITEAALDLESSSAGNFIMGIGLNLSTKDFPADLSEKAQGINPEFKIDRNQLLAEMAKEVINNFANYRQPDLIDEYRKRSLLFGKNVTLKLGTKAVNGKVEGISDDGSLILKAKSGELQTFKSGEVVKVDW

B1: bioY_LL (bioY1 promoter probe) (dsDNA)
DNA 1: CAAATAATAAAATTAACAGTTAACCTAAATTTGATTTTAGGGTTACTGTTTGATATG
DNA 2: CATATCAAACAGTAACCCTAAAATCAAATTTAGGTTAACTGTTAATTTTATTATTTG

Assays:
BirA_ec = target: T3, BirA_ec (Escherichia coli, UniProt P06709); assay: TLC of biotinoyl-5'-AMP from [alpha-32P]ATP; MALDI-TOF of biotinylated AccB87; type: biochemical; conditions: 20 uM biotin, 5 uM ATP, 5 mM MgCl2, 100 mM KCl, pH 8, 37 °C; AccB87 acceptor
T3 construct: gene birA

BirA2_LL = target: T1, BirA2_LL; assay: EMSA; 100 uM biotin + 100 uM ATP; 3-12 pmol protein; Roche binding buffer (composition, pH, temperature not stated), 0.2 pmol DIG probe in 15 ul, 100 uM biotin + 100 uM ATP, ~1 h; native PAGE 7% (Methods) or 7.5%; conditions: protein: recombinant; tags: His6 (pET28a); chain copies: 2; label: digoxigenin; blunt
BirA1_LL = target: T2, BirA1_LL; assay: EMSA; 100 uM biotin + 100 uM ATP (forms biotinoyl-AMP); 3-12 pmol protein; Roche binding buffer (composition, pH, temperature not stated), 0.2 pmol DIG probe in 15 ul, 100 uM biotin + 100 uM ATP, ~1 h; native PAGE 7% (Methods) or 7.5%; conditions: protein: recombinant; tags: His6 (pET28a); chain copies: 2; label: digoxigenin; blunt

T3 sequence (P06709 whole entry): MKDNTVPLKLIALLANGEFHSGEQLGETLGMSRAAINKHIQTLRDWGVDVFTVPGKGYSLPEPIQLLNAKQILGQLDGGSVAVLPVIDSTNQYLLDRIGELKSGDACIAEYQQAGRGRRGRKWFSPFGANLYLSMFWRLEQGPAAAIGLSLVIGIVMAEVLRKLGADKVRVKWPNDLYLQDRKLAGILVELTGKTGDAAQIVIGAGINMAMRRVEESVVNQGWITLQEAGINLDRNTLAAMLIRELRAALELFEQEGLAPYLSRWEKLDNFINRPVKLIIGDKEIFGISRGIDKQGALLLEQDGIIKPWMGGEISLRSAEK

Molecule | TLC of biotinoyl-5'-AMP from [alpha-32P]ATP; MALDI-TOF of biotinylated AccB87 (BirA_ec) | binding result (BirA2_LL) | binding result (BirA1_LL)
O=C(O)CCCC[C@@H]1SC[C@@H]2NC(=O)N[C@@H]21 [biotin] | The formation of the biotinylated AccB87 by E. coli BirA | – | –
B1 | – | no binding | binds
